Measured values from patent US20110229922A1, “SCREENING ASSAYS FOR THE IDENTIFICATION OF BACE2 INHIBITORS” (priority 2008, published 2011).
No end group written: not given here. MR121 = fluorophore label at the N-terminus

Tested on: Min6 cells
Experiment: Proliferation assay in Min6 cells (EdU, confocal microscopy)
Assay type: cell-based
Details: 48 hours, p<10-6, FIG. 5a
Description: 50′000 MING B1 cells per well were seeded in a 96-well plate using standard trypsinization method. The following day, serum-supplemented complete medium (described earlier) was removed and replaced by serum-free and low glucose medium (Invitrogen) supplemented with the compound as follows: 10 nM exendin-4 (Sigma-Aldrich) as a positive control was added to the cells every 12 h, to avoid degradation. […] As an absolute positive control cells were also grown in FCS supplemented standard media. Cells were incubated for 48 hours.
After this incubation, medium was discarded and replaced by the serum-supplemented medium containing 10 nM EdU (Invitrogen) and incubated for 1 h at 37° C. […]
Spinning-disc confocal fluorescence microscopy of the 96-well plate has been performed on the high-throughput automated imaging system Opera™ QEHS (PerkinElmer Cellular Technologies, Hamburg, Germany). […] In each well, typically 12 pairs of scanning images were recorded through a UAPO 20×NA 0.7 water immersion objective lens (Olympus) and optimized filter sets by 2 independent high quantum-efficiency 12 bit CCD cameras (1.3 mega pixels monochrome). […]
Confocal micrographs were analyzed using the proprietary software environment of PerkinElmer's Opera (Acapella 1.8, PerkinElmer Cellular Technologies, Hamburg, Germany). […]

| Substance | proliferation rate compared to basal proliferation rate of starved cells |
| --- | --- |
| exendin-4 | highly significant proliferation increase |

Target: T1, BACE2 (Homo sapiens, UniProt Q9Y5Z0)
T1 construct: made in house; host or cells: E. coli BL21(DE3)
T1 sequence (Q9Y5Z0 20-465): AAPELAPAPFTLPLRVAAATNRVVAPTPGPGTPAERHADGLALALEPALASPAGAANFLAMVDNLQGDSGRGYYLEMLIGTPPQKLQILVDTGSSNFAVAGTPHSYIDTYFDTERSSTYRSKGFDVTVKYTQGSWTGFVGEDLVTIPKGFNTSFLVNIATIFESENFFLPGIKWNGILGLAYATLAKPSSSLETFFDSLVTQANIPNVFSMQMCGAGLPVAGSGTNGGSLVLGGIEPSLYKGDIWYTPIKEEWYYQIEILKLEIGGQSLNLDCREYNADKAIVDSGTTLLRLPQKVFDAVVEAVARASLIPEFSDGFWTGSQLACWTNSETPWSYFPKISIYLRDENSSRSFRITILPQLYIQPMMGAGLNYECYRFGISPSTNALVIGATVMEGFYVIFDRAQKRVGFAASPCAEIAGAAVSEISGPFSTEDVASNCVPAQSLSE
Experiment: FRET peptide cleavage assay, BACE2 activity on peptide substrates
Assay type: biochemical
Details: pH 4.5, substrate 5 μM, FIG. 7 and FIG. 9
Description: The FRET assay was performed essentially as described in Grüninger-Leitch et al. [Substrate and inhibitor profile of BACE (beta-secretase) and comparison with other mammalian aspartic proteases. Journal of Biological Chemistry (2002) 277(7) 4687-93]. In summary, a peptide is designed that is cleaved by the protease. The peptide is labelled with dabsyl at the N terminus and Lucifer Yellow at the C-terminus, such that for an intact peptide the Lucifer Yellow fluorescence is quenched by the dabsyl. When the peptide is cut by BACE2, the quenching is removed and a fluorescent signal is generated.
The assay was performed as described in Grueninger et al. 2002 at pH 4.5 using a substrate concentration of 5 μM. All FRET-peptides had the format described.
(§1) BACE2 enzyme ectodomain was prepared as described in Ostermann et al [“Crystal Structure of Human BACE2 in Complex with a Hydroxyethylamine Transition-state Inhibitor.” Journal of Molecular Biology 355 (2006) 249-261].

| Substance | BACE2 activity against FRET peptide substrate |
| --- | --- |
| dabsyl—QTLEFLKIPS—LucY: FRET peptide based on the TMEM27 sequence, dabsyl at N terminus and Lucifer Yellow at C-terminus (dabsyl-QTLEFLKIPS-{Lucifer Yellow}) | high activity |
| dabsyl-NSLEFLGIQP-lucifer yellow: FRET peptide based on the sequence of ACE2 at the site equivalent to the BACE2 cleavage site in TMEM27 (dabsyl-NSLEFLGIQP-{Lucifer Yellow}) | efficiency greater than that of the TMEM27 substrate |

Target: BACE1 (Homo sapiens, UniProt P56817)
Experiment: FRET peptide cleavage assay, BACE1 activity on peptide substrates
Assay type: biochemical
Details: pH 4.5, substrate 5 μM, FIG. 7

BACE1, sequence (P56817 46-501, species assumed): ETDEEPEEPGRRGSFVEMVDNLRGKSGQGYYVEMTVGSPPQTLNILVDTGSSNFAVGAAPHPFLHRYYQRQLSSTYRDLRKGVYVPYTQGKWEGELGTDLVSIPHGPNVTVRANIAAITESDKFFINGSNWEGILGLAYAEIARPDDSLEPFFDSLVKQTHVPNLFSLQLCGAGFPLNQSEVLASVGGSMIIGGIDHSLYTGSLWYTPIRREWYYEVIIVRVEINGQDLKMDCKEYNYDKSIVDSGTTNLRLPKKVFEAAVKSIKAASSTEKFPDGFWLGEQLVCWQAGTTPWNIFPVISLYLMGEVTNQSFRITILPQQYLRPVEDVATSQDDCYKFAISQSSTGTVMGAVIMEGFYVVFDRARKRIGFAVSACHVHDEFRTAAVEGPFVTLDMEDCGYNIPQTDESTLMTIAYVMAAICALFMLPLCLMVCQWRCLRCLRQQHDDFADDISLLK

| Substance | BACE1 activity against FRET peptide substrate |
| --- | --- |
| dabsyl—QTLEFLKIPS—LucY: FRET peptide based on the TMEM27 sequence, dabsyl at N terminus and Lucifer Yellow at C-terminus (dabsyl-QTLEFLKIPS-{Lucifer Yellow}) | insignificant activity |

Target: T1, BACE2
Experiment: MR121-peptide cleavage assay
Assay type: biochemical
Design: scale not given here
Details: substrate peptides labelled with MR121 at N-terminus and tryptophan at C-terminus
Description: In a related assay, a peptide was devised with the same sequence, which was labeled at the N-terminus with MR121 and at the C-terminus with Tryptophan.
Substrate peptides derived from TMEM27 with activity in the MR121-peptide cleavage assay.
as §1

| Substance | Relative activity |
| --- | --- |
| C QELEFLKI W: Substrate peptide derived from TMEM27 for MR121-peptide cleavage assay (MR121-CQELEFLKIW) | 100 |
| C QTLEFLKIPS W: Substrate peptide derived from TMEM27 for MR121-peptide cleavage assay (MR121-CQTLEFLKIPSW) | 91 |
| C TLEFLKI W: Substrate peptide derived from TMEM27 for MR121-peptide cleavage assay (MR121-CTLEFLKIW) | 28 |
| C QTLEFLKIP W: Substrate peptide derived from TMEM27 for MR121-peptide cleavage assay (MR121-CQTLEFLKIPW) | 75 |
| C QTLEFLKI W: Substrate peptide derived from TMEM27 for MR121-peptide cleavage assay (MR121-CQTLEFLKIW) | 96 |
| C QTLEFL W: Substrate peptide derived from TMEM27 for MR121-peptide cleavage assay (MR121-CQTLEFLW) | 32 |
| C QTLEF W: Substrate peptide derived from TMEM27 for MR121-peptide cleavage assay (MR121-CQTLEFW) | 21 |
| C LEFLKI W: Substrate peptide derived from TMEM27 for MR121-peptide cleavage assay (MR121-CLEFLKIW) | 24 |
| C QTLEFLK W: Substrate peptide derived from TMEM27 for MR121-peptide cleavage assay (MR121-CQTLEFLKW) | 62 |
